Results on 39 sequences are retold here after the supplement of paper PMC7877785.

± gives the uncertainty stated by the source.

The series is described as follows: self-splicing fitness, log relative to wild type (ln ratio); higher = more splicing; Tetrahymena group I intron in knt gene, E. coli kanamycin selection, DiMSum; sequences stand for … in CUCUCU…GGAGGGAAAAGUUAUCAGGCAUGCACCUGGUAGCUAGUCUUUAAACCAAUAGAUUGCAUCGGUUUAAAAGGCAAGACCGUCAAAUUGCGGGAAAGGGGUCAACAGCCGUUCAGUACCAAGUCUCAGGGGAAACUUUGAGAUGGCCUUGCAAAGGGUAUGGUAAUAAGCUGACGGACAUGGUCCUAACCACGCAGCCAAGUCCUAAGUCAACAGAUCUUCUGUUGAUAUGGAUGCAGUUCACAGACUAAAUGUCGGUCGGGGAAGAUGUAUUCUUCUCAUAAGAUAUAGUCGGACCUCUCCUUAAUGGGAGCUAGCGGAUGAAGUGAUGCAACACUGGAGCCGCUGGGAACUAAUUUGUAUGCGAAAGUAUAUUGAUUAGUUUUGGAGUACUCGUGGUCG
In short, it runs like this: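 The eight P1ex-region nucleotides of an intron in the knt kanamycin-resistance gene on pET-22b(+) were all randomised and the library put into E. coli BL21(DE3). Six replicate transformations were grown overnight at 37°C or 30°C on LB agar with or without 25 μg/mL kanamycin, together with 100 μg/mL carbenicillin, 50 μM IPTG and 0.2% rhamnose. Colonies were pooled and amplicon-sequenced on an Illumina HiSeq 2500. Fitness from DiMSum is the error-weighted combination of wild-type-normalised replicate fold changes, kanamycin over none.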

Consider UGUCAGCAAUAUUACGUGUA, for which the “self-splicing fitness (ln)” value by setting is: (30 °C) -0.648 ± 0.056; (37 °C) 0.127 ± 0.074.
Take UCGGAGCAAUAUUACGUGUG: the “self-splicing fitness (ln)” value reads like this: (30 °C) -3.08 ± 0.18; (37 °C) -1.63 ± 0.1.
Take ACCUAGCAAUAUUACGCAUG: the “self-splicing fitness (ln)” value (30 °C) is -2.27 ± 0.15 and the “self-splicing fitness (ln)” value (37 °C) is -1.42 ± 0.14.
With UCCAAGCAAUAUUACGCGCU, the “self-splicing fitness (ln)” value (30 °C) is -2.67 ± 0.21 and the “self-splicing fitness (ln)” value (37 °C) is -1.52 ± 0.23.
The corresponding values for UCAUAGCAAUAUUACGUACU are -4.14 ± 0.19 and -2.96 ± 0.19.
For the sequence UCAAAGCAAUAUUACGAGGU, the “self-splicing fitness (ln)” value (30 °C) is -3.05 ± 0.13 and the “self-splicing fitness (ln)” value (37 °C) is -2.14 ± 0.14.
As to UAAUAGCAAUAUUACGGAUC, the “self-splicing fitness (ln)” value (37 °C) is -2.05 ± 0.41.
Regarding UUGCAGCAAUAUUACGAAGA, the “self-splicing fitness (ln)” value by setting is: (30 °C) -2.37 ± 0.21; (37 °C) -1.57 ± 0.18.
As for AUGGAGCAAUAUUACGUUUC, the “self-splicing fitness (ln)” value by setting is: (30 °C) -3.47 ± 0.21; (37 °C) -2.68 ± 0.26.
AACUAGCAAUAUUACGCAGA: the “self-splicing fitness (ln)” value by setting is: (30 °C) -3.43 ± 0.37; (37 °C) -0.413 ± 0.15.
Take CCCAAGCAAUAUUACGCAGG: the “self-splicing fitness (ln)” value (30 °C) was -2.94 ± 0.2 and the “self-splicing fitness (ln)” value (37 °C) is -2.7 ± 0.48.
Regarding CGCAAGCAAUAUUACGACUC, the “self-splicing fitness (ln)” value is -1.3 ± 0.12 (30 °C) and -0.869 ± 0.19 (37 °C).
For the sequence UGAUAGCAAUAUUACGAGCC, for the setting “30 °C”, the “self-splicing fitness (ln)” value was -3.7 ± 0.47.
Consider CAUAAGCAAUAUUACGAGGG, for which the “self-splicing fitness (ln)” value by setting is: (30 °C) -2.96 ± 0.17; (37 °C) -2.53 ± 0.28.
Regarding AGCAAGCAAUAUUACGAUGC, the “self-splicing fitness (ln)” value was -2.08 ± 0.11 (30 °C) and -1.71 ± 0.14 (37 °C).
The corresponding values for AUCGAGCAAUAUUACGCGUU are -2.01 ± 0.17 and -1.1 ± 0.17.
Regarding GUACAGCAAUAUUACGUGGA, the “self-splicing fitness (ln)” value reads like this: (30 °C) -4.34 ± 0.29; (37 °C) -2.52 ± 0.14.
The corresponding values for AGCGAGCAAUAUUACGAUGG are -4.61 ± 0.42 and -2.68 ± 0.24.
The corresponding values for UUCAAGCAAUAUUACGUAUU are -3.82 ± 0.17 and -2.66 ± 0.16.
Consider CCGCAGCAAUAUUACGCCUG, for which the “self-splicing fitness (ln)” value (30 °C) was -1.69 ± 0.13 and the “self-splicing fitness (ln)” value (37 °C) is -1.22 ± 0.16.
With GAGAAGCAAUAUUACGAAAG, the “self-splicing fitness (ln)” value reads like this: (30 °C) -4.36 ± 0.32; (37 °C) -1.5 ± 0.2.
As for GUACAGCAAUAUUACGUCUA, the “self-splicing fitness (ln)” value is, setting by setting: (30 °C) -1.11 ± 0.091; (37 °C) -0.268 ± 0.081.
The corresponding values for CAUAAGCAAUAUUACGACCU are -2.63 ± 0.28 and -1.62 ± 0.33.
Take CACAAGCAAUAUUACGUGAG: the “self-splicing fitness (ln)” value (30 °C) was -4.48 ± 0.15 and the “self-splicing fitness (ln)” value (37 °C) is -3.21 ± 0.19.
Take UCGUAGCAAUAUUACGGUCU: the “self-splicing fitness (ln)” value reads like this: (30 °C) -2.83 ± 0.18; (37 °C) -1.67 ± 0.16.
On to GUAAAGCAAUAUUACGAACC, for which the “self-splicing fitness (ln)” value (30 °C) is -2.39 ± 0.29 and the “self-splicing fitness (ln)” value (37 °C) is -2.8 ± 0.36.
CUUCAGCAAUAUUACGGCCU: the “self-splicing fitness (ln)” value (37 °C) was -1.66 ± 0.38.
With GGAUAGCAAUAUUACGAGUU, the “self-splicing fitness (ln)” value is -1.59 ± 0.1 (30 °C) and -1.64 ± 0.14 (37 °C).
CGGUAGCAAUAUUACGCUCG: the “self-splicing fitness (ln)” value (37 °C) is -2.91 ± 0.43.
With CUCAAGCAAUAUUACGGUUC, the “self-splicing fitness (ln)” value runs as follows: (30 °C) -3.65 ± 0.17; (37 °C) -2.74 ± 0.16.
Consider CCGCAGCAAUAUUACGCGAA, for which the “self-splicing fitness (ln)” value is, setting by setting: (30 °C) -2.87 ± 0.18; (37 °C) -2.5 ± 0.18.
For the sequence UAAGAGCAAUAUUACGUUUU, the “self-splicing fitness (ln)” value reads like this: (30 °C) -3.31 ± 0.15; (37 °C) -3.27 ± 0.2.
Consider UAUAAGCAAUAUUACGAAAA, for which the “self-splicing fitness (ln)” value is, setting by setting: (30 °C) -1.72 ± 0.31; (37 °C) -1.27 ± 0.31.
With GCCGAGCAAUAUUACGGGCA, the “self-splicing fitness (ln)” value is -2.24 ± 0.25 (30 °C) and -0.776 ± 0.17 (37 °C).
As to GCGCAGCAAUAUUACGACAC, the “self-splicing fitness (ln)” value (30 °C) is -0.738 ± 0.38.
As to GACGAGCAAUAUUACGCGGU, the “self-splicing fitness (ln)” value by setting is: (30 °C) -4.23 ± 0.31; (37 °C) -1.83 ± 0.2.
Regarding UAUAAGCAAUAUUACGGGGA, the “self-splicing fitness (ln)” value by setting is: (30 °C) -1.81 ± 0.19; (37 °C) -1.91 ± 0.23.
As for AUUAAGCAAUAUUACGCACC, the “self-splicing fitness (ln)” value is -1.52 ± 0.19 (30 °C) and 0.0961 ± 0.28 (37 °C).
Turning to GGAUAGCAAUAUUACGUGUU, the “self-splicing fitness (ln)” value is -3.31 ± 0.17 (30 °C) and -1.63 ± 0.14 (37 °C).
